In paper PMC5590881, “Xenon for tunnelling analysis of the efflux pump component OprN” (PLoS ONE, 2017):

Target: the molecule itself
Assay: crystal structure; OprN-wt crystals and OprN-Xe crystals (OprN-wt crystals under 2 MPa xenon), space group I4, T = 100 K; grown at 18°C in 100 mM sodium acetate pH 5.4, 0.8–1.1 M sodium formate, 9–11% PEG 4000; protein in 0.9% β-OG

B1: OprN, the outer membrane channel of the MexEF efflux pump from Pseudomonas aeruginosa (natural protein)
chain: CTVGPDYRTPDTAAAKIDATASKPYDRSRFESLWWKQFDDPTLNQLVEQSLSGNRDLRVAFARLRAARALRDDVANDRFPVVTSRASADIGKGQQPGVTEDRVNSERYDLGLDSAWELDLFGRIRRQLESSDALSEAAEADLQQLQVSLIAELVDAYGQLRGAQLREKIALSNLENQKESRQLTEQLRDAGVGAELDVLRADARLAATAASVPQLQAEAERARHRIATLLGQRPEELTVDLSPRDLPAITKALPIGDPGELLRRRPDIRAAERRLAASTADVGVATADLFPRVSLSGFLGFTAGRGSQIGSSAARAWSVGPSISWAAFDLGSVRARLRGAKADADAALASYEQQVLLALEESANAFSDYGKRQERLVSLVRQSEASRAAAQQAAIRYREGTTDFLVLLDAEREQLSAEDAQAQAEVELYRGIVAIYRSLGGGWQPSA
modifications: palmitoylation at the N-terminus Cys residue (dual acylation observed at the same cysteine)
notes: OprN, outer membrane factor of the MexEF-OprN efflux pump, Pseudomonas aeruginosa; the oprN gene was cloned; the chain in the crystal begins at the acylated Cys; 1341 amino acids built in the trimer; Homotrimer in the crystal (chains A, B, C); also called OprN-wt; OprN-Xe; source: C43-ΔacrB strain, pBAD-33, purified from the outer membrane (DDM, β-OG; Ni-NTA, Superose 6 SEC); not shown: His6, …
  stoichiometry N: 3
